The assay has as its target LIN-3^EGF (the purified EGF domain from LIN-3) (C. elegans). Briefly: SPR; Biacore 3000; LIN-3 amine-coupled on CM5 chip, sLET-23 injected; steady state, single-site model; 10 mM Hepes pH 8.0, 150 mM NaCl, 3 mM EDTA, 0.005% P-20, room temperature.

B1: LET-23 extracellular region (sLET-23) (domain or fragment)
chain: FGNSNAQLWKRCVSPQDCLCSGTTNGISRYGTGNILEDLETMYRGCRRVYGNLEITWIEANEIKKWRESTNSTVDPKNEDSPLKSINFFDNLEEIRGSLIIYRANIQKISFPRLRVIYGDEVFHDNALYIHKNDKVHEVVMRELRVIRNGSVTIQDNPKMCYIGDKIDWKELLYDPDVQKVETTNSHQHCYQNGKSMAKCHESCNDKCWGSGDNDCQRVYRSVCPKSCSQCFYSNSTSSYECCDSACLGGCTGHGPKNCIACSKYELDGICIETCPSRKIFNHKTGRLVFNPDGRYQNGNHCVKECPPELLIENDVCVRHCSDGHHYDATKDVRECEKCRSSSCPKICTVDGHLTNETLKNLEGCEQIDGHLIIEHAFTYEQLKVLETVKIVSEYITIVQQNFYDLKFLKNLQIIEGRKLHNVRWALAIYQCDDLEELSLNSLKLIKTGAVLIMKNHRLCYVSKIDWSSIITSKGKDNKPSLAIAENRDSKLCETEQRVCDKNCNKRGCWGKEPEDCLECKTWKSVGTCVEKCDTKGFLRNQTSMKCERCSPECETCNGLGELDCLTCRHKTLYNSDFGNRMECVHDCPVSHFPTQKNVCEKCHPTCYDNGCTGPDSNLGYGGCKQCKYAVKYENDTIFCLQSSGMNNVCVENDLPNYYISTYDTEGVIETHCEKCSISCKTCSSAGRNVVQNKCVCKHVEYQPNPSERICMDQCPVNSFMVPDTNNTVCKKCHHECDQNYHCANGQSTGCQKCKNFTVFKGDIAQCVSECPKNLPFSNPANGECLDYDIASRQRKTRM
As usually defined, the Kd is the constant that tells how readily two partners part at equilibrium. High values mean weaker binding, low ones tighter binding. B1 came in with a Kd of 2 to 4 µM.

These data come from PMC4465127.
